According to IntAct's records for PubMed 16648636:

B1: Monothiol glutaredoxin-4 (Saccharomyces cerevisiae), P32642 (parent)
chain: MTVVEIKSQDQFTQLTTTNAANKLIVLYFKAQWADPCKTMSQVLEAVSEKVRQEDVRFLSIDADEHPEISDLFEIAAVPYFVFIQNGTIVKEISAADPKEFVKSLEILSNASASLANNAKGPKSTSDEESSGSSDDEEDETEEEINARLVKLVQAAPVMLFMKGSPSEPKCGFSRQLVGILREHQIRFGFFDILRDENVRQSLKKFSDWPTFPQLYINGEFQGGLDIIKESIEEDPEYFQHALQ
partner: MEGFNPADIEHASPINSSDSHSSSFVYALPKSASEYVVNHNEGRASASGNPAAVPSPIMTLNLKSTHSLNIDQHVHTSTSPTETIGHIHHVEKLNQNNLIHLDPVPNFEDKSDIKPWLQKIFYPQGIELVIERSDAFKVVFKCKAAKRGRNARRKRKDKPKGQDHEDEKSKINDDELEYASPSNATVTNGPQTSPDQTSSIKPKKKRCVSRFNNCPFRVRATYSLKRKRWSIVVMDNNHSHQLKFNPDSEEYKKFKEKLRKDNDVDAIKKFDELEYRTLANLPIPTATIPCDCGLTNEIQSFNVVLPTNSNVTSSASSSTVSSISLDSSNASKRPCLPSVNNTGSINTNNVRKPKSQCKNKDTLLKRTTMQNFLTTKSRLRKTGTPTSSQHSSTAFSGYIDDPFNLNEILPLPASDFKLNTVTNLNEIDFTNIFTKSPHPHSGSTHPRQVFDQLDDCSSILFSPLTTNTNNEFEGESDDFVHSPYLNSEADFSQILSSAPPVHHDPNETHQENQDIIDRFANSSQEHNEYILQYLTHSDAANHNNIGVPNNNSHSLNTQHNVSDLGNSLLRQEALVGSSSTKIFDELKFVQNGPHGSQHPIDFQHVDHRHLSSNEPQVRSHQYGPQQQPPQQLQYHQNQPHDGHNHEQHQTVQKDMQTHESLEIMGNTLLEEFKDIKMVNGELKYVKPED
B2: Monothiol glutaredoxin-3 (Saccharomyces cerevisiae), Q03835 (parent)
chain: MPVIEINDQEQFTYLTTTAAGDKLIVLYFHTSWAEPCKALKQVFEAISNEPSNSNVSFLSIDADENSEISELFEISAVPYFIIIHKGTILKELSGADPKEYVSLLEDCKNSVNSGSSQTHTMENANVNEGSHNDEDDDDEEEEEETEEQINARLTKLVNAAPVMLFMKGSPSEPKCGFSRQLVGILREHQVRFGFFDILRDESVRQNLKKFSEWPTFPQLYINGEFQGGLDIIKESLEEDPDFLQHALQS
partner: B1 partner

Variants of: B1
Details: with aft1_yeast AFT1, P22149

Variant	effect of a mutation on the interaction
MTVVEIKSQDQFTQLTTTNAANKLIVLYFKAQWADPCKTMSQVLEAVSEKVRQEDVRFLSIDADEHPEISDLFEIAAVPYFVFIQNGTIVKEISAADPKEFVKSLEILSNASASLANNAKGPKSTSDEESSGSSDDEEDETEEEINARLVKLVQAAPVMLFMKGSPSEPKSGFSRQLVGILREHQIRFGFFDILRDENVRQSLKKFSDWPTFPQLYINGEFQGGLDIIKESIEEDPEYFQHALQ [C171S]	disrupting interaction

Variants of: B2
Details: with aft1_yeast AFT1, P22149

Variant	effect of a mutation on the interaction
MPVIEINDQEQFTYLTTTAAGDKLIVLYFHTSWAEPCKALKQVFEAISNEPSNSNVSFLSIDADENSEISELFEISAVPYFIIIHKGTILKELSGADPKEYVSLLEDCKNSVNSGSSQTHTMENANVNEGSHNDEDDDDEEEEEETEEQINARLTKLVNAAPVMLFMKGSPSEPKSGFSRQLVGILREHQVRFGFFDILRDESVRQNLKKFSEWPTFPQLYINGEFQGGLDIIKESLEEDPDFLQHALQS [C176S]	disrupting interaction
